Source: article PMC9029856, “Impact of Different [Tc(N)PNP]-Scaffolds on the Biological Properties of the Small cRGDfK Peptide: Synthesis, In Vitro and In Vivo Evaluations” (Molecules, 2022)

Tested on: receptor-negative human melanoma M21L cells
Test: Cell uptake and internalization in M21L cells
Assay type: cell-based
Details: negative M21L cell line, 37 °C, 90 min
Description: (§1) Cell uptake and internalization studies were performed on receptor-positive human melanoma M21 (expressing high levels of αvβ3 integrin and moderate level of integrin αvβ5), human breast cancer MCF7 (exclusively expressing αvβ5), and receptor-negative human melanoma M21L cell lines. The expression of αvβ3 and αvβ5 by cells was already evaluated by flow cytometry (Table 2). The stability of each radiolabeled peptide in the culture media before and after cell exposure was assessed.
(§2) Experiments were conducted in suspension at 37 °C. The working conditions were set up to avoid cell damage and/or death. With the use of these information, the cells were pre-incubated in sterile glass tubes at 37 °C for 10 min, in the presence or not of cRGDfK pentapeptide (50 µL; 1.65 mM).
(§3) Then, 1 mL of the cell suspension (1 × 10^6 cells/mL) was incubated with intermittent agitation with 10 µL (10 µCi) of ^99mTc1–3. At 90 min, the cells were moved in Eppendorf microcentrifuge tubes (1.5 mL) and the incubation was interrupted by centrifugation (3000 rpm for 5 min at 10 °C). The supernatant (S1) was separated from the pellet. The cell pellet was treated 10 min at room temperature with saline acetate buffer (CH3COOH 0.2M/NaCl 0.5 M) to remove the membrane-bound compound. After centrifugation (3000 rpm for 10 min at 10 °C), the supernatant (S2) was separated from the pellet (P1), and each fraction was collected, placed in a separated counting tube, and the activity was measured using a NaI counter (Cobra II, Packard) to estimate both the cell uptake and the internalized fraction.
(§4) The uptake of complexes was expressed as percentage cell uptake of the total activity on 10^6 cells (% cell uptake/10^6 cells).
(§5) All assessments were conducted in triplicate for three experiments.

Substance	cell uptake (sum of surface bound and internalized radioactivity)
[Tc(N)(H2NS-cRGDfK)(PNP3OH)]^+ [^99mTc3]	1.73 ± 0.27 % cell uptake/10^6 cells

Tested on: serum proteins
Test: not given
Assay type: in vitro ADME
Details: not given
Description: Thus, to have some predictive indications of the metabolic outcome of our compounds, the binding to serum proteins and the enzymatic biotransformation of ^99mTc1–3 in blood and tissue homogenates were assessed in vitro by incubating the purified compounds at 37 °C in human and mouse sera as well as in murine liver and kidney homogenates.
Protein Binding. The affinity of the ^99mTc(N) complexes toward the serum proteins was evaluated by chromatographic methods.
Upon incubation, 25 µL of each sample was withdrawn and loaded on a pre-spun (735× g for 2 min) Sephadex G-50 mini-column. The column was centrifuged at 735 × g for 1 min. The collected eluate and the column were counted in a NaI-scintillation counter. The protein-bound complex was calculated as the percentage of the total activity.

Substance	% Protein Binding
[Tc(N)(H2NS-cRGDfK)(PNP3OH)]^+ [^99mTc3]	7.91 ± 2.01%

Tested on: human melanoma M21 (αvβ3 positive) cells
Test: Cell uptake and internalization in M21 cells
Assay type: cell-based
Details: M21 blocked by an excess of cold cRGDfK, 37 °C, 90 min
Description: as §1, §2, §3, §4, §5

Substance	cell uptake (sum of surface bound and internalized radioactivity), blocked
[Tc(N)(H2NS-cRGDfK)(PNP3OH)]^+ [^99mTc3]	1.41 ± 0.25 % cell uptake/10^6 cells

Same assay, conditions: M21 unblocked, 37 °C, 90 min

Substance	cell uptake (sum of surface bound and internalized radioactivity)
[Tc(N)(H2NS-cRGDfK)(PNP3OH)]^+ [^99mTc3]	2.60 ± 0.36 % cell uptake/10^6 cells

Same assay, conditions: internalized radioactivity, melanoma cell lines

Substance	specific/nonspecific ratio, internalized radioactivity only
[Tc(N)(H2NS-cRGDfK)(PNP3OH)]^+ [^99mTc3]	4.29

Tested on: not given
Test: not given
Set-up: species or system Sprague Dawley rats
Details: rat, in vivo, iv, 15 uCi/100 uL, 0.5 h
Description: Pharmacokinetics and metabolism.
Female Sprague Dawley rats weighing 180–200 g were anesthetized with an intraperitoneal injection of a mixture of Zoletil (40 mg/kg) and xylazine (2 mg/kg). A jugular vein was surgically exposed, and the solution containing the radiolabeled peptide was injected (15 µCi/100 µL). The rats (n = 3) were scarified by cervical dislocation at different times after injection. The blood was withdrawn from the heart with a syringe immediately after death and quantified. Organs were excised, rinsed in saline, weighed, and the activity was counted in a NaI counter. The results were expressed as the percentage of injected activity per gram of tissue (%IA/g) to be able to compare our results with those reported in the literature.

Substance	Blood	Heart	Intestine	Kidneys	Liver	Lungs	Muscle	Spleen	Stomach	Urine
[Tc(N)(H2NS-cRGDfK)(PNP3OH)]^+ [^99mTc3]	0.46 ± 0.07 %IA/g	0.25 ± 0.06 %IA/g	1.29 ± 0.13 %IA/g	5.22 ± 0.44 %IA/g	0.90 ± 0.09 %IA/g	0.62 ± 0.08 %IA/g	0.17 ± 0.01 %IA/g	0.43 ± 0.05 %IA/g	0.72 ± 0.04 %IA	27.8 ± 5.6 %IA

Same assay, conditions: rat, in vivo, iv, 15 uCi/100 uL, 1 h

Substance	Blood	Heart	Intestine	Kidneys	Liver	Lungs	Muscle	Spleen	Stomach	Urine
[Tc(N)(H2NS-cRGDfK)(PNP3OH)]^+ [^99mTc3]	0.25 ± 0.03 %IA/g	0.15 ± 0.00 %IA/g	1.95 ± 0.17 %IA/g	4.83 ± 0.35 %IA/g	0.80 ± 0.06 %IA/g	0.49 ± 0.01 %IA/g	0.13 ± 0.01 %IA/g	0.39 ± 0.04 %IA/g	0.64 ± 0.08 %IA	31.2 ± 3.0 %IA

Same assay, conditions: rat, in vivo, iv, 15 uCi/100 uL, 2 h

Substance	Blood	Heart	Intestine	Kidneys	Liver	Lungs	Muscle	Spleen	Stomach	Urine
[Tc(N)(H2NS-cRGDfK)(PNP3OH)]^+ [^99mTc3]	0.16 ± 0.01 %IA/g	0.13 ± 0.02 %IA/g	3.76 ± 0.27 %IA/g	4.44 ± 0.32 %IA/g	0.75 ± 0.09 %IA/g	0.37 ± 0.06 %IA/g	0.12 ± 0.00 %IA/g	0.36 ± 0.02 %IA/g	0.57 ± 0.03 %IA	44.2 ± 10.9 %IA

Same assay, conditions: rat, in vivo, iv, 15 uCi/100 uL, 4 h

Substance	Blood	Heart	Intestine	Kidneys	Liver	Lungs	Muscle	Spleen	Stomach	Urine
[Tc(N)(H2NS-cRGDfK)(PNP3OH)]^+ [^99mTc3]	0.09 ± 0.01 %IA/g	0.12 ± 0.03 %IA/g	4.17 ± 0.59 %IA/g	4.22 ± 0.45 %IA/g	0.67 ± 0.04 %IA/g	0.32 ± 0.02 %IA/g	0.08 ± 0.00 %IA/g	0.34 ± 0.04 %IA/g	0.46 ± 0.04 %IA	30.2 ± 9.45 %IA

Tested on: not given
Test: not given
Set-up: species or system Sprague Dawley rats
Details: rat, in vivo
Description: As expected, MRT values of liver and kidneys were much higher than the dose of stomach, spleen, lung, and heart.
The time–activity curves of the main organs were obtained using the biodistribution data (%IA/organ) as input for the CoKiMo spreadsheet software. Then, the organ mean residence times (MRT) were computed by integration of the organ activity curves, extrapolated until 5 half-lives of Tc-99m (30 h) and corrected for its physical decay, to evaluate the pharmacokinetic profile of each radiolabeled peptide.

Substance	MRT Blood	MRT Heart	MRT Kidney	MRT Liver	MRT Lung	MRT Spleen	MRT Stomach
[Tc(N)(H2NS-cRGDfK)(PNP3OH)]^+ [^99mTc3]	14.5 min	0.4 min	36.7 min	26.7 min	1.6 min	0.8 min	2.1 min
